In PMC2972214 (2010) one finds Kd data, which are given here for 1 molecule.

Holding throughout (test): SPR
Test [1] concerns the target recombinant α-enolase of Streptococcus salivarius SV41 (IPM …) (Streptococcus salivarius, UniProt J7THK5 1-434).
Test [2] deals with recombinant α-enolase of Streptococcus salivarius SV17 (IPM FYENG—VY) (Streptococcus salivarius, UniProt J7THK5 1-434).
Test [3] concerns the target recombinant α-enolase of Streptococcus oralis SV11 (IPM …) (Streptococcus oralis, UniProt A0A1X1IR15 1-434).
Test [4] concerns the target recombinant α-enolase of oral streptococcal strain SV90.

B1: human plasminogen (natural protein)
chain: EPLDDYVNTQGASLFSVTKKQLGAGSIEECAAKCEEDEEFTCRAFQYHSKEQQCVIMAENRKSSIIIRMRDVVLFEKKVYLSECKTGNGKNYRGTMSKTKNGITCQKWSSTSPHRPRFSPATHPSEGLEENYCRNPDNDPQGPWCYTTDPEKRYDYCDILECEEECMHCSGENYDGKISKTMSGLECQAWDSQSPHAHGYIPSKFPNKNLKKNYCRNPDRELRPWCFTTDPNKRWELCDIPRCTTPPPSSGPTYQCLKGTGENYRGNVAVTVSGHTCQHWSAQTPHTHNRTPENFPCKNLDENYCRNPDGKRAPWCHTTNSQVRWEYCKIPSCDSSPVSTEQLAPTAPPELTPVVQDCYHGDGQSYRGTSSTTTTGKKCQSWSSMTPHRHQKTPENYPNAGLTMNYCRNPDADKGPWCFTTDPSVRWEYCNLKKCSGTEASVVAPPPVVLLPDVETPSEEDCMFGNGKGYRGKRATTVTGTPCQDWAAQEPHRHSIFTPETNPRAGLEKNYCRNPDGDVGGPWCYTTNPRKLYDYCDVPQCAAPSFDCGKPQVEPKKCPGRVVGGCVAHPHSWPWQVSLRTRFGMHFCGGTLISPEWVLTAAHCLEKSPRPSSYKVILGAHQEVNLEPHVQEIEVSRLFLEPTRKDIALLKLSSPAVITDKVIPACLPSPNYVVADRTECFITGWGETQGTFGAGLLKEAQLPVIENKVCNRYEFLNGRVQSTELCAGHLAGGTDSCQGDSGGPLVCFEKDKYILQGVTSWGLGCARPNKPGVYVRVSRFVTWIEGVMRNN
B1: the Kd in test [1] was determined as 300 nM; in test [2], 500 nM; in test [3] it was 1600 nM; in test [4], 300 nM.
